Measurements: article PMC6210165, “Structure-Based Engineering of Phanerochaete chrysosporium Alcohol Oxidase for Enhanced Oxidative Power toward Glycerol” (Biochemistry, 2018)
Substitutions are numbered along the chain they refer to. Names and notes keep the numbering of the source.

B1: PcAOX (His-SUMO-PcAOX) (Phanerodontia chrysosporium) (protein)
chain: MGHPEEVDVIVCGGGPAGCVVAGRLAYADPTLKVMLIEGGANNRDDPWVYRPGIYVRNMQRNGINDKATFYTDTMASSYLRGRRSIVPCANILGGGSSINFQMYTRASASDWDDFKTEGWTCKDLLPLMKRLENYQKPCNNDTHGYDGPIAISNGGQIMPVAQDFLRAAHAIGVPYSDDIQDLTTAHGAEIWAKYINRHTGRRSDAATAYVHSVMDVQDNLFLRCNARVSRVLFDDNNKAVGVAYVPSRNRTHGGKLHETIVKARKMVVLSSGTLGTPQILERSGVGNGELLRQLGIKIVSDLPGVGEQYQDHYTTLSIYRVSNESITTDDFLRGVKDVQRELFTEWEVSPEKARLSSNAIDAGFKIRPTEEELKEMGPEFNELWNRYFKDKPDKPVMFGSIVAGAYADHTLLPPGKYITMFQYLEYPASRGKIHIKSQNPYVEPFFDSGFMNNKADFAPIRWSYKKTREVARRMDAFRGELTSHHPRFHPASPAACKDIDIETAKQIYPDGLTVGIHMGSWHQPSEPYKHDKVIEDIPYTEEDDKAIDDWVADHVETTWHSLGTCAMKPREQGGVVDKRLNVYGTQNLKCVDLSICPDNLGTNTYSSALLVGEKGADLIAEELGLKIKTPHAPVPHAPVPTGRPATQQVR
notes: codon-optimized, E. coli BL21(DE3); N-terminal His-SUMO fusion kept for all kinetics, tag cleaved for crystals; homo-octamer with FAD; residues 2-645 seen in structure
B2: PcAOX (His-SUMO-PcAOX) (Phanerodontia chrysosporium; F101N) (protein)
chain: B1 chain with F101N
notes: as for B1
B3: PcAOX (His-SUMO-PcAOX) (Phanerodontia chrysosporium; F101S) (protein)
chain: B1 chain with F101S
notes: as for B1

Legend:
Details in all cases: 50 mM potassium phosphate pH 7.5, 25 °C, co-substrate O2, fit errors ≤11%
[1] = substrate: CO; assay: HRP-coupled H2O2 assay, steady-state kinetics; assay type: biochemical, Phanerodontia chrysosporium
Description: (§1) HRP-coupled H2O2 assay, steady-state kinetics on PcAOX (His-SUMO-PcAOX)

[2] = substrate: CCCO; assay: HRP-coupled H2O2 assay, steady-state kinetics; assay type: biochemical, Phanerodontia chrysosporium
Description: as §1

purified protein = substrate: CCO; assay: purified protein

| Protein | Km [1] [mM] | kcat [1] [s⁻¹] | kcat/Km [1] [M⁻¹ s⁻¹] | Km [2] [mM] | kcat [2] [s⁻¹] | kcat/Km [2] [M⁻¹ s⁻¹] | Km (purified protein) [mM] | kcat (purified protein) [s⁻¹] | kcat/Km (purified protein) [M⁻¹ s⁻¹] |
| --- | --- | --- | --- | --- | --- | --- | --- | --- | --- |
| B1 | 2 | 18 | 9000 | 45 | 11 | 240 | 15 | 19 | 1300 |
| B2 | 14 | 10 | 710 | 11 | 12 | 1100 | 11 | 10 | 910 |
| B3 | 2 | 18 | 9000 | 4 | 7 | 1800 | 1 | 5 | 5000 |
